Target: Complement C2 (human) (human) (UniProt P06681)
Assay: cell-based or functional assay

Complement C2 (human) (human), sequence (P06681 21-752 limits assumed): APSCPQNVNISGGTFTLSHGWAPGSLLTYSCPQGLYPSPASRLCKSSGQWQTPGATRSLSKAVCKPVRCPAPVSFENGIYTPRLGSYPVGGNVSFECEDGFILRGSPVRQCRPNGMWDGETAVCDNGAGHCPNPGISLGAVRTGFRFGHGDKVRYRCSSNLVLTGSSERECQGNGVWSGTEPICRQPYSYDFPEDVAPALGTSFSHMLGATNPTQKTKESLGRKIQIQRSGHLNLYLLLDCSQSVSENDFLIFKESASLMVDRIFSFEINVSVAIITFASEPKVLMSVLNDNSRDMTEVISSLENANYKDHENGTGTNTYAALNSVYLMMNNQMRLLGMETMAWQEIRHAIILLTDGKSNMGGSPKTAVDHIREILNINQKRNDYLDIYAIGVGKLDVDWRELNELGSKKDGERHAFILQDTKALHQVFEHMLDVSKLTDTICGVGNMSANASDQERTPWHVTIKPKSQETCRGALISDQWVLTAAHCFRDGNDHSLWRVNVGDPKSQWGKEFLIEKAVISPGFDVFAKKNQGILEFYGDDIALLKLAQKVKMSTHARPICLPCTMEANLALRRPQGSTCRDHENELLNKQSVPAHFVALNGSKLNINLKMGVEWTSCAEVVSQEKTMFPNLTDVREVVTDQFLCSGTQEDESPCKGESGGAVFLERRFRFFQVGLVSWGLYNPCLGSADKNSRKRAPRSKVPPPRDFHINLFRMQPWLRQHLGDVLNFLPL

IC50 of the proteases for cleavage of C2 (Western blot densitometry, 5% human plasma, 1 h 37 C) | Substance
11.9 nM | modified MT-SP1 CB42 (Y146E) protease domain (from UniProt Q9Y5Y6 615-855) (enzyme)
15.7 nM | wildtype MT-SP1 protease domain (CB200) (from UniProt Q9Y5Y6 615-855) (enzyme)

Reference: US20070093443A1
